From patent US20160362487A1 (Regeneron, published 2016)

T1: human IL-33 (R&D Systems, #3625-IL-010/CF) (human, UniProt O95760 112-270)
T1 sequence (looked up): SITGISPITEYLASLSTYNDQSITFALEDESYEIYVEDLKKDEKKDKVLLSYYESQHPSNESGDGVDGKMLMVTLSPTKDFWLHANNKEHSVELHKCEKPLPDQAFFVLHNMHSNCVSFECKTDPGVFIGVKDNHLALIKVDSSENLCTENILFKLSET

T2: cynomolgus monkey IL-33 expressed with a C-terminal hexahistidine tag (cynomolgus monkey)
T2 construct: also called MfIL-33-6His; Mf-IL-33-6His
T2 chain: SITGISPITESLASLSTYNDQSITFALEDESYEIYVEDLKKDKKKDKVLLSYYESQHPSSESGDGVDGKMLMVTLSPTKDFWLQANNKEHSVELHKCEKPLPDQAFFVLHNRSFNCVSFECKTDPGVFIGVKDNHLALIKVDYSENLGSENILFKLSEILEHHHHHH


Columns and labels:
[1] = target: T1, human IL-33 (R&D Systems, …); experiment: cell-based or functional assay
[2] = target: T1, human IL-33 (R&D Systems, …); experiment: cell-based or functional assay; remark: listed apart in the source
[3] = target: T1, human IL-33 (R&D Systems, …); experiment: SPR 37C, pH6.0 chase, mAb captured
Procedure: (§1) Equilibrium dissociation constants (KD values) for IL-33 binding to purified anti-IL-33 monoclonal antibodies were determined using a real-time surface plasmon resonance biosensor using a Biacore 4000 instrument. The Biacore sensor surface was first derivatized by amine coupling with either a polyclonal rabbit anti-mouse antibody (GE, # BR-1008-38) or with a monoclonal mouse anti-human Fc antibody (GE, # BR-1008-39) to capture anti-IL-33 monoclonal antibodies expressed with mouse or with human IgG4 constant regions, respectively. All Biacore binding studies were performed in 0.01M ADA pH 7.4, 0.15M NaCl, 3 mM EDTA, and 0.05% v/v Surfactant Tween-20 (ABS-ET running buffer). […] Association of either hIL-33 or MfIL-33-6His to the captured monoclonal antibody was monitored for 4 minutes and their dissociation in ABS-ET running buffer was monitored for 10 minutes. The effect of reduced pH on the binding of each anti-IL-33 antibody to either hIL-33 or MfIL-33-6His was studied using an in-line pH chase assay format in 0.01M ADA pH 6.0, 0.15M NaCl, 3 mM EDTA, and 0.05% v/v Surfactant Tween-20 (ABS-ET pH6 buffer). To achieve this, association of either hIL-33 or MfIL-33-6His to the captured monoclonal antibody was monitored for 4 minutes in ABS-ET running buffer. Following a 30 second dissociation of either hIL-33 or MfIL-33-6His in ABS-ET running buffer, ABS-ET pH6 buffer was injected for 3 minutes, and the analyte dissociation under the low-pH conditions was measured. All the binding kinetic experiments were performed at both 25° C. and 37° C. Kinetic association (kₐ) and dissociation (kd) constants were determined by fitting the real-time sensorgrams to a 1:1 binding model using Scrubber 2.0c curve fitting software. Binding dissociation equilibrium constants (KD) and dissociative half-lives (t½) were calculated from the kinetic rate constants as: […]

[4] = target: T2, cynomolgus monkey IL-33 expressed with …; experiment: SPR 37C, pH6.0 chase, mAb captured
Procedure: as §1

[5] = target: T1, human IL-33 (R&D Systems, …); experiment: SPR 25C, pH6.0 chase, mAb captured
Procedure: as §1

[6] = target: T2, cynomolgus monkey IL-33 expressed with …; experiment: SPR 25C, pH6.0 chase, mAb captured
Procedure: as §1

Row | Binder | IC50, blocking of IFN-γ release from human PBMC induced by 260 pM hIL-33, donor #603486 [1] [M] | IC50, blocking of IFN-γ release from human PBMC induced by 260 pM hIL-33, donor #603487 [1] [M] | IC50, blocking of human basophil degranulation induced by 100 pM human IL-33, donor 655687 [2] [M] | IC50, blocking of human basophil degranulation induced by 100 pM human IL-33, donor 655688 [2] [M] | koff [3] [s⁻¹] | t½ [3] [min] | t½ Ratio (pH 7.4/pH 6.0) [3] | koff [4] [s⁻¹] | t½ [4] [min] | t½ Ratio (pH 7.4/pH 6.0) [4] | koff [5] [s⁻¹] | t½ [5] [min] | t½ Ratio (pH 7.4/pH 6.0) [5] | koff [6] [s⁻¹] | t½ [6] [min] | t½ Ratio (pH 7.4/pH 6.0) [6]
1 | H4H9659P (antibody, human IgG4, V domains shown, Human IgG4 Fc (H4H)) VH: QVQLVQSGAEVKKPGASVKVSCKASGYTFNSYGISWVRQAPGQGLEWMGWISSHNGNSHYVQKFQGRVSMTTDTSTSTAYMELRSLRSDDTAVYYCARHSYTTSWYGGFDYWGQGTLVTVSS VL: DIQMTQSPSSVSASVGDRVTITCRASQGFSSWLAWYQQKPGKAPQLLIYAASSLQSGVPSRFSGSGSGSDFTLTISSLQPEDFATYYCQQANSFPLTFGGGTKVEIK | 1.25e-09 | 2.71e-09 | 5.79e-10 | 4.47e-10 | 0.00299 | 4 | 7.4 | 0.00102 | 11 | 0.5 | 0.000664 | 17 | 3.9 | 0.000123 | 94 | 0.3
2 | H4H9664P (antibody, human IgG4, V domains shown, Human IgG4 Fc (H4H)) VH: QVQLVESGGGVVQPGRSLRLSCAASGFTFSSYGLHWVRQSPGKGLEWVALISYDGSNKYYADSVKGRFTISRDNSKNTLYLQMNSLRPEDTAGYFCAKSLYTTSWYGGFDYWGQGTLVTVSS VL: DIQMTQSPSSVSASVGDRVTITCRASQGIRSWLAWYQQKPGKAPNLLIYAASSLQSGVPSRFSGSGSGTDFTLTISSLQPEDFATYYCQQANSFPPTFGPGTKVDIK | 3.98e-09 | 6.08e-09 | – | – | 0.00279 | 4 | 3.9 | 0.00193 | 6 | 0.3 | 0.000823 | 14 | 3.2 | 0.00048 | 24 | 0.3
3 | H4H9660P (antibody, human IgG4, V domains shown, Human IgG4 Fc (H4H)) VH: EVQLVESGGGLVQPGGSLRLSCAASGITLSSYGMSWVRQAPGKGLEWVASIFGSGGGPYYADSVKGRFTMSRDNSKNTLYLQMNSLRAEDTAVYYCAKDRYSGSYYGGFDYWGRGTLVTVSS VL: DIQMTQSPSSVSASVGDRVTITCRASQGITSWLAWYQQKPGKAPTLLIYAASSLQTGVPSRFSGSGSGTDFTLTISSLQPEHFATYYCQQANSFPPTFGGGTKVEIK | 6.67e-10 | 2.91e-09 | – | – | 0.00323 | 4 | 6.8 | 0.00463 | 2.5 | 1 | 0.000708 | 16 | 3.2 | 0.00108 | 11 | 0.7
4 | H4H9663P (antibody, human IgG4, V domains shown, Human IgG4 Fc (H4H)) VH: QVQLVQSGAEVKKPGASVKVSCKASGYTFTGHYMYWMRQAPGQGLEWMGWINPNSGGTNYAQKFQDRVTMTRDTSISTAYMELSRLRSDDTAVYYCARGRYGSSWYGGFEYWGQGTLVTVSS VL: DIQMTQSPSSVSASVGDRVTITCRASQGITSWLAWYQQKPGKAPNLLIYAAASLQSGVPSRFSGSGSGTDFTLTISSLQPEDFTTYYCQQAYSLPLTFGGGTKVEIK | 1.24e-08 | 2.2e-08 | – | – | 0.00462 | 3 | 3.7 | 0.00354 | 3.3 | 1 | 0.0011 | 11 | 2.7 | 0.000683 | 17 | 0.7

Further lines, results first:

Row | IC50, blocking of IFN-γ release from human PBMC induced by 260 pM hIL-33, donor #603486 [1] [M] | IC50, blocking of IFN-γ release from human PBMC induced by 260 pM hIL-33, donor #603487 [1] [M] | IC50, blocking of human basophil degranulation induced by 100 pM human IL-33, donor 655687 [2] [M] | IC50, blocking of human basophil degranulation induced by 100 pM human IL-33, donor 655688 [2] [M] | koff [3] [s⁻¹] | t½ [3] [min] | t½ Ratio (pH 7.4/pH 6.0) [3] | koff [4] [s⁻¹] | t½ [4] [min] | t½ Ratio (pH 7.4/pH 6.0) [4] | koff [5] [s⁻¹] | t½ [5] [min] | t½ Ratio (pH 7.4/pH 6.0) [5] | koff [6] [s⁻¹] | t½ [6] [min] | t½ Ratio (pH 7.4/pH 6.0) [6] | Binder
5 | 2.97e-09 | 8.62e-09 | – | – | 0.00585 | 2 | 5.1 | 0.00819 | 1.4 | 1.3 | 0.00162 | 7 | 4.6 | 0.00161 | 7 | 1.1 | H4H9671P (antibody, human IgG4, V domains shown, Human IgG4 Fc (H4H)) VH: EVQLVESGGGLVQPGGSLRLSCAASGFTLRSYFMTWVRQVPGKGLEGVSAISGISGGTYYTDSVKGRFTISRDNSKNTLFLQMNSLRAEDTAVYFCARTVYSSSYYGGFQHWGQGTLVTVSS VL: DIQMTQSPSSVSVSVGDRVTITCRASQGISSWLAWYQQKPGKAPKLLIYVASSLQSGVPSRFSGSGSGTDFTLTISSLQPEDFATYYCQQTNSFPLTFGGGTKVEIK
6 | 8.07e-09 | 1.88e-08 | – | – | 0.00244 | 5 | 4 | 0.00268 | 4 | 0.8 | 0.000566 | 20 | 2.2 | 0.000696 | 17 | 0.7 | H4H9667P (antibody, human IgG4, V domains shown, Human IgG4 Fc (H4H)) VH: EVQLVESGGGLVQPGGSLRLSCAASGFTFSTYSMHWVRQAPGKGLEYVSTINNNGDTTYYADSVKGRFTISRDNSKNTLYLQLGSLRPEDMAVYYCARQTYTSSWYGGFDSWGQGTLVTVSS VL: DIQMTQSPSSVSASVGDRVTITCRASQGITSWLAWYQQKPGKAPKLLIYAASNLQSGVPSRFSGSGSGTDFTLTITSLQPEDFATYYCQQANSLPFTFGPGTKVDIK
7 | 1.75e-10 | 4.71e-10 | 1.33e-10 | 9.71e-11 | 0.00463 | 2 | 5.3 | 0.00735 | 1.6 | 1.5 | 0.00111 | 10 | 4.3 | 0.00156 | 7 | 1.2 | H4H9675P (antibody, human IgG4, V domains shown, Human IgG4 Fc (H4H)) VH: EVQLVESGGNLEQPGGSLRLSCTASGFTFSRSAMNWVRRAPGKGLEWVSGISGSGGRTYYADSVKGRFTISRDNSKNTLYLQMNSLSAEDTAAYYCAKDSYTTSWYGGMDVWGHGTTVTVSS VL: DIQMTQSPSSVSASVGDRVTITCRASQGIFSWLAWYQQKPGKAPKLLIYAASSLQSGVPSRFSGSGSGTDFTLTISSLQPEDFAIYYCQQANSVPITFGQGTRLEIK
